This is an account of results in article PMC4468861.

For the assay, the target named is N-terminally GST-tagged M. jannaschii SR(aa93-408) (M. jannaschii) (UniProt Q57739).
Chain of UniProt Q57739 (Q57739 93-408): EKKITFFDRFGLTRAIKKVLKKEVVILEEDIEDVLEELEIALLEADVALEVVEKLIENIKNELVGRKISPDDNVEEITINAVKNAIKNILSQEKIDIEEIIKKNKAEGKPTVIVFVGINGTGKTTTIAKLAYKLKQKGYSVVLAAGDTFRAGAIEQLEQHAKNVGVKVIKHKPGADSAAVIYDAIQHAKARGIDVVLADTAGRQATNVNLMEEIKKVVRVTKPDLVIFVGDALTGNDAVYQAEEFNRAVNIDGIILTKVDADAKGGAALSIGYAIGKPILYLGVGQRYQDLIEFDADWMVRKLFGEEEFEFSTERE

For “M. jannaschii SRP core complex containing fl-SRP54-ss, SRP19 and SRP RNA (from UniProt Q57565 1-451; Q58440 1-87)”, the GTPase rate of the SRP-SR complex in multiple turnover reactions (0.5 uM SRP, SR 0-25 uM, 25 °C), against SRP complexes containing SRP54-ss as the text prints (fl-SRP54 by the legend of Fig. 1b) stood at 20 fold.
